Four molecules from patent publication US20230233650A1, “NOVEL FATTY ACID MODIFIED UROCORTIN 2 DERIVATIVES AND THE USES THEREOF” (Novo Nordisk A/S, priority 2021, published 2023) can be followed below.

Numbered stars: 1 amine (or outer) side, 2 acyl side, 3 side chain; on linkers, the order of the positions; unused ones are H or OH. Side chains are listed from the residue outwards. Ends that are not written are not given here. * marks the point of attachment. C20 diacid = O=C(O)CCCCCCCCCCCCCCCCCCC(=O)*; γGlu = O=C(O)[C@H](CCC(=O)[*:2])N[*:1]; AEEA = NCCOCCOCC(=O)O

What is called IC50 is the concentration that gives 50% inhibition. The low end stands for greater potency, the high end for weaker potency.

The target in assay [1] is T1, Pro-Link-tagged human CRF1 receptor (human, UniProt P34998 24-415).
T1 sequence (looked up): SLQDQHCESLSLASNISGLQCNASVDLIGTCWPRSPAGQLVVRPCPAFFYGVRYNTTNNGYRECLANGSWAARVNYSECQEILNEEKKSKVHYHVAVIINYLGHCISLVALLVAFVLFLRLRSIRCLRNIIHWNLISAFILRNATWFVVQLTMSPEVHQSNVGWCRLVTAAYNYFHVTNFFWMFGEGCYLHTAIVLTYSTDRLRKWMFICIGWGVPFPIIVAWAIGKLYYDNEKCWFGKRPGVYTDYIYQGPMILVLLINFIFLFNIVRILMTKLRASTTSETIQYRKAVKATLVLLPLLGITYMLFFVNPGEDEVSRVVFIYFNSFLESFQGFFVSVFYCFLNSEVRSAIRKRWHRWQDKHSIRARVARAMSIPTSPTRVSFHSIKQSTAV
Description: cell-based or functional assay.

Assay [2] concerns the target T2, Pro-Link-tagged human CRF2 receptor (human, UniProt Q13324 20-411).
T2 sequence (looked up): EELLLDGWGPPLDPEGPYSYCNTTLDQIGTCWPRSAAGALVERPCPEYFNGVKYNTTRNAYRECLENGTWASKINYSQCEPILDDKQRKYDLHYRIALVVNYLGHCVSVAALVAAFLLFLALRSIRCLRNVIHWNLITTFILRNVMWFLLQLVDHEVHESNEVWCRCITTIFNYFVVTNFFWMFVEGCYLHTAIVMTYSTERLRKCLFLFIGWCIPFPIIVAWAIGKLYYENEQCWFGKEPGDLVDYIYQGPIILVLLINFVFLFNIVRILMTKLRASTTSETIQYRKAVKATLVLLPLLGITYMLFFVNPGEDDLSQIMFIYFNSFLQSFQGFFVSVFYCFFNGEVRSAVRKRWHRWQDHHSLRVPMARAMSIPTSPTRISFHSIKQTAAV
Description: cell-based or functional assay.

Assay [3] concerns the target T3, Human CRF1 receptor (Corticotropin-Releasing Factor receptor 1) (human, UniProt P34998 24-415).
T3 construct: whole, on cells; also called type 1 CRF receptor
T3 sequence (looked up): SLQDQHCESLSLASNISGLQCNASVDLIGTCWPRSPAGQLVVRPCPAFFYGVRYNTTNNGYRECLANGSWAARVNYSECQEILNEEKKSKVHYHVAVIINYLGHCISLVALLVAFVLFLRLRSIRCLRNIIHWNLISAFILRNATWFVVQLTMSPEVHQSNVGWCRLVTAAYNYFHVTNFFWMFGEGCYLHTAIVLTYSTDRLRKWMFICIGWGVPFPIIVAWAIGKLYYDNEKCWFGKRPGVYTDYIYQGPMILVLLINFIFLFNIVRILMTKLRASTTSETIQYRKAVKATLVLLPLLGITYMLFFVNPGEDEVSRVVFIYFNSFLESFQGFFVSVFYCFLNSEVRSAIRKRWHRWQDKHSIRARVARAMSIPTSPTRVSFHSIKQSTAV
In words: SPA, displacement of [125I]-Sauvagine from membranes of CHO-K1 cells expressing the CRF1 receptor. On the procedure: Scintillation Proximity Assay: CHO-K1 cells expressing either the CRF₁ receptor or the CRF₂ receptor were obtained from DiscoveRx. Both cell lines were cultured at 37° C. in a humidified atmosphere with 5% CO₂. The culture media used was Ham’s F-12 Nutrient Mix with Glutamax (Gibco) containing 10% fetal bovine serum, 1% Pen/Strep, 800 µg/ml G418 and 300 µg/ml Hygromycin B. Membranes were prepared by the following protocol: cultured cells were washed twice with cold Dulbecco’s phosphate buffered saline and detached using TrypLE™ (ThermoFisher) and transferred to tubes and centrifuged for 5 minutes at 1000 g at +4° C. Pellets were resuspended in ice cold homogenization buffer (20 mM Hepes pH 7.1, 5 mM MgCl₂, 1 mg/ml Bacitracin with 2 complete EDTA-free protease inhibitor cocktail tablets/50 ml (Roche)) and then homogenized for 30 seconds using a Ultra-Turrax T25 tissue homogenizer (IKA) at medium speed. The homogenate was centrifuged at 35,000 g for 15 minutes at +4° C. using an ultracentrifuge, and the supernatant was discarded, and fresh homogenization buffer was added. Homogenization of the pellet was repeated a total of three times. The final pellet was resuspended in a few millilitres of homogenization buffer and protein concentration was determined using the Bradford method. The membrane preparation was transferred to cryotubes, and the aliquots were stored at -80° C. […]
(In general: In a radioligand displacement assay an active substance lowers the binding of a labelled ligand.)

Assay [4] deals with T4, Human CRF2 receptor (Corticotropin-Releasing Factor receptor 2) (human) (UniProt Q13324).
T4 sequence (looked up): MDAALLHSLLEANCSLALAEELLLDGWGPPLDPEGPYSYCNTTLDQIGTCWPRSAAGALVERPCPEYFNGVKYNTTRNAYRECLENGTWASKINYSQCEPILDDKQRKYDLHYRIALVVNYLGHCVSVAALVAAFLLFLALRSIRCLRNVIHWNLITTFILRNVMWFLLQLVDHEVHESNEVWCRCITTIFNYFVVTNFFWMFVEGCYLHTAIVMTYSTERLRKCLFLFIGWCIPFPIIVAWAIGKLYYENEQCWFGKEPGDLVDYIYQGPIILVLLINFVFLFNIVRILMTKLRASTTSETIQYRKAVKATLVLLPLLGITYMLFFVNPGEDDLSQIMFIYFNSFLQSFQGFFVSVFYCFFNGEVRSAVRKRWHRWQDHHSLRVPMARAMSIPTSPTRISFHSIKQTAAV
In words: SPA, displacement of [125I]-Sauvagine from membranes of CHO-K1 cells expressing the CRF2 receptor.

The target of assay [5] is T5, Human CRF1 receptor (Corticotropin-Releasing Factor receptor 1) (human), P34998.
T5 chain: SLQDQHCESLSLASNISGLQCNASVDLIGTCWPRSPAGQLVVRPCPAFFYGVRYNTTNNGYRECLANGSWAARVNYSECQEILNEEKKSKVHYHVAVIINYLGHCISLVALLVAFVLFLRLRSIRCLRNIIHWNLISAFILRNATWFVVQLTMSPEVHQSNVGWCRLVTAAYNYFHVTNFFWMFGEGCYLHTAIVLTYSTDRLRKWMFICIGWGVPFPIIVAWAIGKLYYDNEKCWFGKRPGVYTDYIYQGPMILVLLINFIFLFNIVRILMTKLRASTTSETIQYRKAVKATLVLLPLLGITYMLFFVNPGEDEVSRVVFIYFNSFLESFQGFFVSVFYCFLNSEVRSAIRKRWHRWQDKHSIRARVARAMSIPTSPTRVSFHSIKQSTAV
Description: SPA, displacement of [125I]-Sauvagine from membranes of CHO-K1 cells expressing the CRF1 receptor. To be noted: remark: other sources report otherwise.

Consider DNPSLSIDLTFHLLRTLLELARTQSQRERAEQNRIIFDSV-NH2 (also called human Ucn1) [Compound 1 - hUcn1 (human Urocortin 1 peptide)], for which the “Human CRF1 receptor EC50 [nM] (beta-arrestin recruitment, PathHunter)” value (shortened to “Human CRF1 receptor EC50 [nM]”) in assay [1] came out at 22 nM. The “Human CRF2 receptor EC50 [nM] (beta-arrestin recruitment, PathHunter)” value (from here on “Human CRF2 receptor EC50 [nM]”) in assay [2] is 31 nM. The IC50 in assay [3] came to 0.07 nM.

Take IVLSLDVPIGLLQILLEQARARAAREQATTNARILARV-NH2 [Compound 2 - hUcn2 (human Urocortin 2 peptide)]: the “Human CRF1 receptor EC50 [nM]” value in assay [1] is more than 10000 nM. Also, the IC50 in assay [4] came out at 0.58 nM; in assay [5], 447 nM.

B1: Compound 3: N{epsilon}-[C20 diacid-3xgGlu-2xAdo]Lys-[Glu33,Glu37]-hUcn2 (peptide)
peptide: K([AEEA-AEEA-γGlu-γGlu-γGlu-C20 diacid])IVLSLDVPIGLLQILLEQARARAAREQATTNAEILAEV-NH2
modifications: N-terminus assumed
SMILES: CC[C@H](C)[C@H](NC(=O)[C@H](CCC(=O)O)NC(=O)[C@H](C)NC(=O)[C@H](CC(N)=O)NC(=O)[C@@H](NC(=O)[C@@H](NC(=O)[C@H](C)NC(=O)[C@H](CCC(N)=O)NC(=O)[C@H](CCC(=O)O)NC(=O)[C@H](CCCNC(=N)N)NC(=O)[C@H](C)NC(=O)[C@H](C)NC(=O)[C@H](CCCNC(=N)N)NC(=O)[C@H](C)NC(=O)[C@H](CCCNC(=N)N)NC(=O)[C@H](C)NC(=O)[C@H](CCC(N)=O)NC(=O)[C@H](CCC(=O)O)NC(=O)[C@H](CC(C)C)NC(=O)[C@H](CC(C)C)NC(=O)[C@@H](NC(=O)[C@H](CCC(N)=O)NC(=O)[C@H](CC(C)C)NC(=O)[C@H](CC(C)C)NC(=O)CNC(=O)[C@@H](NC(=O)[C@@H]1CCCN1C(=O)[C@@H](NC(=O)[C@H](CC(=O)O)NC(=O)[C@H](CC(C)C)NC(=O)[C@H](CO)NC(=O)[C@H](CC(C)C)NC(=O)[C@@H](NC(=O)[C@@H](NC(=O)[C@@H](N)CCCCNC(=O)COCCOCCNC(=O)COCCOCCNC(=O)CC[C@H](NC(=O)CC[C@H](NC(=O)CC[C@H](NC(=O)CCCCCCCCCCCCCCCCCCC(=O)O)C(=O)O)C(=O)O)C(=O)O)[C@@H](C)CC)C(C)C)C(C)C)[C@@H](C)CC)[C@@H](C)CC)[C@@H](C)O)[C@@H](C)O)C(=O)N[C@@H](CC(C)C)C(=O)N[C@@H](C)C(=O)N[C@@H](CCC(=O)O)C(=O)N[C@H](C(N)=O)C(C)C
Turning to B1, the “Human CRF1 receptor EC50 [nM]” value in assay [1] was more than 10000 nM. Besides, in assay [2], the “Human CRF2 receptor EC50 [nM]” value worked out at 55 nM.

B2: Compound 4: N{epsilon}-[C20 diacid-3xgGlu-2xAdo]Lys-[Glu33,Glu36]-hUcn2 (peptide)
peptide: K([AEEA-AEEA-γGlu-γGlu-γGlu-C20 diacid])IVLSLDVPIGLLQILLEQARARAAREQATTNAEILERV-NH2
modifications: N-terminus assumed
SMILES: CC[C@H](C)[C@H](NC(=O)[C@H](CCC(=O)O)NC(=O)[C@H](C)NC(=O)[C@H](CC(N)=O)NC(=O)[C@@H](NC(=O)[C@@H](NC(=O)[C@H](C)NC(=O)[C@H](CCC(N)=O)NC(=O)[C@H](CCC(=O)O)NC(=O)[C@H](CCCNC(=N)N)NC(=O)[C@H](C)NC(=O)[C@H](C)NC(=O)[C@H](CCCNC(=N)N)NC(=O)[C@H](C)NC(=O)[C@H](CCCNC(=N)N)NC(=O)[C@H](C)NC(=O)[C@H](CCC(N)=O)NC(=O)[C@H](CCC(=O)O)NC(=O)[C@H](CC(C)C)NC(=O)[C@H](CC(C)C)NC(=O)[C@@H](NC(=O)[C@H](CCC(N)=O)NC(=O)[C@H](CC(C)C)NC(=O)[C@H](CC(C)C)NC(=O)CNC(=O)[C@@H](NC(=O)[C@@H]1CCCN1C(=O)[C@@H](NC(=O)[C@H](CC(=O)O)NC(=O)[C@H](CC(C)C)NC(=O)[C@H](CO)NC(=O)[C@H](CC(C)C)NC(=O)[C@@H](NC(=O)[C@@H](NC(=O)[C@@H](N)CCCCNC(=O)COCCOCCNC(=O)COCCOCCNC(=O)CC[C@H](NC(=O)CC[C@H](NC(=O)CC[C@H](NC(=O)CCCCCCCCCCCCCCCCCCC(=O)O)C(=O)O)C(=O)O)C(=O)O)[C@@H](C)CC)C(C)C)C(C)C)[C@@H](C)CC)[C@@H](C)CC)[C@@H](C)O)[C@@H](C)O)C(=O)N[C@@H](CC(C)C)C(=O)N[C@@H](CCC(=O)O)C(=O)N[C@@H](CCCNC(=N)N)C(=O)N[C@H](C(N)=O)C(C)C
With B2, the “Human CRF1 receptor EC50 [nM]” value in assay [1] is more than 10000 nM. For the same molecule, the “Human CRF2 receptor EC50 [nM]” value in assay [2] stood at 42 nM.
